Measurements reported in publication PMC4210868.

Biological target: DDAGNRQP-fused pVIII protein (phage fd (fd-tet)) (UniProt P69539)
Test: tricine-SDS-PAGE

stoichiometry N: 2
Substance: DDAGNRQP-fused pVIII protein (from UniProt P69539 24-73)
